Measured values published in patent US20230365703A1.
One block for each substance: values may come before it.

What was measured:
[1] = target: IL12 receptors on H_IL12 Reporter 293 cells (UniProt P42701); assay: cell-based or functional assay
[2] = target: CD47 on CD47-transfected CHO-K1 cells (Homo sapiens (Human)) (UniProt Q08722); assay: flow cytometry on CD47-transfected CHO-K1 cells (CD38-/CD47+), anti-human IgG-FITC detection
[3] = target: human CD47-Fc chimeric protein (human) (UniProt Q08722); assay: SPR (Biacore T200), human CD47-Fc captured on anti-human IgG (Fc) CM5 chip, analyte 50 nM, bivalent analyte model
[4] = target: GPC3 on liver cancer cells (HepG2, HuH-7) (UniProt P51654); assay: flow cytometry on HepG2 cells, Alexa Fluor 488 anti-human IgG; fit value of the flat control curve; unit inferred, unit taken from the axis Con.(nM)

IL12 receptors on H_IL12 Reporter 293 cells, sequence (Q99665 24-862 limits assumed, chain 2 of 2, other chains not shown): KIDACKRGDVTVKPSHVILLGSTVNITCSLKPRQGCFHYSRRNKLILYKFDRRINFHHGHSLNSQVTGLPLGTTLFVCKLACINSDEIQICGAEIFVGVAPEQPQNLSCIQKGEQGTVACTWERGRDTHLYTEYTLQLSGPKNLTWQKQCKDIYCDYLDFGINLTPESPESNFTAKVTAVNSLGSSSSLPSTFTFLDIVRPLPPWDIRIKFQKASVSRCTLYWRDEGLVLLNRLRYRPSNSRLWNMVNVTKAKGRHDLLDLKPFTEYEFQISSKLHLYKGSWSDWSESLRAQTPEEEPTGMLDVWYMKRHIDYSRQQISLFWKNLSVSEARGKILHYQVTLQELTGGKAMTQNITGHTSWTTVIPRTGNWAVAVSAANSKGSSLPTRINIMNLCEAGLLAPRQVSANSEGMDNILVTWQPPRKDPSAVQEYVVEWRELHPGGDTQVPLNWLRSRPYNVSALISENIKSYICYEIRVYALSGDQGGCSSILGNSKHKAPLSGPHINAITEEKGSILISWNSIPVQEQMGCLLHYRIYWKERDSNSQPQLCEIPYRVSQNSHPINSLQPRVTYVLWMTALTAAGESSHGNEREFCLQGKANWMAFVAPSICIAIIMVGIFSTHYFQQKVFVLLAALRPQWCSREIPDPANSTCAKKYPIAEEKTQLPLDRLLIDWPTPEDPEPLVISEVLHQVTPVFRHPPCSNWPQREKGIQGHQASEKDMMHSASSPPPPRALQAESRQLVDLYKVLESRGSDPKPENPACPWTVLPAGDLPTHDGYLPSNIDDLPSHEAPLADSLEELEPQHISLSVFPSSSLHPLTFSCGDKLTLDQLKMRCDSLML

EC50 on H IL12 Reporter 293 cells (One-Glo signal; called binding affinity by the filing) [1]: 0.06 nM
Substance: IL12A and IL12B complex (from UniProt P29459 23-219; P29460 24-328) (ligand)

EC50 (read off the curve) [2]: 0.8 nM
Kd [3]: 37.3 nM
Substance: TTI-621 (Fc fusion)

EC50 [4]: 3.4 nM
Substance: Human IgG1 homotype control (Isotype) (antibody)
